# According to patent US20200255499A1 (COUNCIL OF THE QUEENSLAND INSTITUTE OF MEDICAL RESEARCH, published 2020):
# Positions count from the first letter of the chain named.
# T1: Epstein Barr Virus (EBV) glycoprotein gp350 (Epstein-Barr virus, UniProt P03200 1-860)
# T1 construct: Viral antigen: immunogen, coated in the ELISAs, immobilised on the CM5 chip in SPR; also called EBV gp350; gp350 antigen
# T1 sequence: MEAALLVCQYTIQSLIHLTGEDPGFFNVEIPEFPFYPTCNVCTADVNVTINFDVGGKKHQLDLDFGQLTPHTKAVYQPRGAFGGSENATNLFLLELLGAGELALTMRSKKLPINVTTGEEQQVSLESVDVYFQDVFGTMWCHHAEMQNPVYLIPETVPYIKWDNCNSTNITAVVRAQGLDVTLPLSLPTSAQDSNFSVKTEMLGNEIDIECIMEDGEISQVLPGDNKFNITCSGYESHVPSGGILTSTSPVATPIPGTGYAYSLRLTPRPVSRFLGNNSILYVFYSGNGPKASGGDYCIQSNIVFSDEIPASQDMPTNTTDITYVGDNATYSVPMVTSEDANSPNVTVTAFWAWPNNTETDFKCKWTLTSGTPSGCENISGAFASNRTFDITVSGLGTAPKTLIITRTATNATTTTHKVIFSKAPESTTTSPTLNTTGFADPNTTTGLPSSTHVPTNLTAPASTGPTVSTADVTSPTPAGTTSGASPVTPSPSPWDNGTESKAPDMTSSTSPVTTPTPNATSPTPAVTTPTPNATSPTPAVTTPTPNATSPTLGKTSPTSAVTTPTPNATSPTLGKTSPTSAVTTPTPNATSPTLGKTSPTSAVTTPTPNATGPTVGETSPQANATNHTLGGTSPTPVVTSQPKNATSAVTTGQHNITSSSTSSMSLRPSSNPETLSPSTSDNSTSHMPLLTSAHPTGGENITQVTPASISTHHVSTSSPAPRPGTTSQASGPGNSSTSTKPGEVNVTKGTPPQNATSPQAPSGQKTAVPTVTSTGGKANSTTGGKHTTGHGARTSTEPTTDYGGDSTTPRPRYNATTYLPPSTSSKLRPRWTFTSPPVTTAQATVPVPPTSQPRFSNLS
# B1: Clone B8 recombinant human IgG1 monoclonal antibody (antibody, V domains shown)
# VH: EVQLVESAGEVQKPGESLRISCKASGYTFSHYWIGWVRQLPGKGLEWMGIIYPDDSDSRYSPSFQGQVTMSVDKSINTAYLQWNSLKVSDTATYYCVRHWLKRGSNFGFGFDPWGQGTTLTVSS
# VL: ESALTQPASVSGSPGQSITISCTGTSSDVGGYNYVSWYQQHPGKAPKLMIYDVSNRPSGVSNRFSGSKSGNTASLTISGLQAEDEADYYCSSYTSSSTLVFGGGTKLTVLG
# notes: also called antibody B8
# B2: Clone B8, original phage-displayed antibody fragment (other)
# VH: B1 VH
# VL: B1 VL
# notes: VH and VL are as translated from the PCR products of the original phage clone; also called CloneB8 (phage clone)
# B3: Clone A11 recombinant human IgG1 monoclonal antibody (antibody, V domains shown)
# VH: EMQLVQSGAEVKKPGASVKVSCKTSGYNFNHQGISWLRQAPGQGLEWMGWISGFNGKTNYAQKFQGRVTMTADRSTTTAYMELRSLRSDDTAVYYCASGGEQWLVQNFVHWGQGTLLTVSS
# VL: ETVLTQEPSLTVSPGGTVTLTCASSTGAVTSGYYPNWFQQKPGQAPRALIYSTSNKHSWTPARFSGSLLGGKAALTLSGVQPEDEAEYYCLLYYGGAWVFGGGTKLTVLG
# notes: also called Antibody A11
# B4: Clone A11, original phage-displayed antibody fragment (other)
# VH: MQLVQSGAEVKKPGASVKVSCKTSGYNFNHQGISWLRQAPGQGLEWMGWISGFNGKTNYAQKFQGRVTMTADRSTTTAYMELRSLRSDDTAVYYCASGGEQWLVQNFVHWGQGTLLTVSS
# VL: VLTQEPSLTVSPGGTVTLTCASSTGAVTSGYYPNWFQQKPGQAPRALIYSTSNKHSWTPARFSGSLLGGKAALTLSGVQPEDEAEYYCLLYYGGAWVFGGGTKLTVL
# notes: The printed VH and VL begin one or two residues later than those of the other clones, so they may be cut short at the N-terminus; also called CloneA11 (phage clone)
# B5: C10 (antibody, V domains shown)
# VH: EVQLVQSGAEVKKPGASVKVSCKASGYTFNAYYIHWVRQAPGQGLDWMGWINPNSGGTNYAQNFKGRVTMTRDTSISTAYLELRSLTSDDTAVYFCATERGYTSSFRRDAFDKWGQGTMLTVSS
# VL: EAVVTQPPSASGTPGQGVTISCSGSSSNIGSNFVYWYQQLPGTAPKLLIYRNNQRPSGVPDRFSGSKSATSASLAISGLRSEDEADYYCATWDDSLSGYVFGTGTKLTVLG
# notes: Full IgG1 form of phage clone C10, expressed in Expi293F cells; It is not in the list MOLECULES; also called Clone C10 recombinant human IgG1 monoclonal antibody; CloneC10
# B6: Clone E10 recombinant human IgG1 monoclonal antibody (antibody, V domains shown)
# VH: B5 VH with K19E, M119L
# VL: ESVLTQPPSISAAPGQRVTIPCSGSSSDIGNHYVSWYQQLPGAAPKLLIYEDNKRPSGIPDRFSGSKSGTSASLGITGLQTGDEADYYCGTWDNSLRSGFFGGGTKVTVLG
# B7: Clone B7 recombinant human IgG1 monoclonal antibody (antibody, V domains shown)
# VH: B5 VH with K19E
# VL: ESVLTQPPSVSAAPGQKVTISCSGSSSNIGNNYVSWYQQLPGTAPKLLIYENNKRPSGIPDRFSGSKSGTSATLGITGLQTGDEAGYYCGTWDSSLSAVVFGGGTKLTVLG
# notes: also called Antibody B7
# B8: Clone D7 recombinant human IgG1 monoclonal antibody (antibody, V domains shown)
# VH: B5 VH with K19E
# VL: ESVLTQPPSVSAAPGQKVTMSCSGSTSNIGSNSVSWYQHLPGTAPKLLLFDNAKRPSGIPDRFSGSKSGTSATLGITGLQTGDEADYYCGTWDSGLSVMVFGGGTKLTVLG
# B9: Clone B7, original phage-displayed antibody fragment (other)
# VH: B5 VH with K19E
# VL: B7 VL
# notes: also called CloneB7 (phage clone)
# B10: Clone E10, original phage-displayed antibody fragment (other)
# VH: B5 VH with K19E, M119L
# VL: B6 VL
# notes: also called CloneE10 (phage clone)
# B11: Clone C10, original phage-displayed antibody fragment (other)
# VH: B5 VH
# VL: B5 VL
# notes: also called CloneC10 (phage clone)
# B12: Clone D7, original phage-displayed antibody fragment (other)
# VH: B5 VH with K19E
# VL: B8 VL
# notes: also called CloneD7 (phage clone)
# Assays:
# [1] = biological target: T1, Epstein Barr Virus (EBV) glycoprotein …; test: SPR (Biacore T100), gp350 immobilised on CM5 chip, antibody as analyte, single cycle kinetics
# [2] = biological target: T1, Epstein Barr Virus (EBV) glycoprotein …; test: SPR steady-state affinity plot, 1:1 Langmuir fit (FIG. 11), gp350 immobilised; given as 'affinity constant'
# [3] = biological target: T1, Epstein Barr Virus (EBV) glycoprotein …; test: monoclonal phage ELISA on gp350
# [4] = biological target: T1, Epstein Barr Virus (EBV) glycoprotein …; test: SPR steady-state affinity plot, 1:1 Langmuir fit (FIG. 11), gp350 immobilised; given as 'affinity constant'; 'affinity constant' in M (FIG. 11)
# [5] = biological target: T1, Epstein Barr Virus (EBV) glycoprotein …; test: SPR (Biacore T100), gp350 immobilised on CM5 chip, antibody as analyte, single cycle kinetics; single cycle kinetics (FIG. 10), 'KD value' in nM
# [6] = biological target: T1, Epstein Barr Virus (EBV) glycoprotein …; test: SPR (Biacore T100), single cycle kinetics, gp350 immobilised on CM5 sensor chip, antibody as analyte
# [7] = biological target: T1, Epstein Barr Virus (EBV) glycoprotein …; test: SPR (Biacore T100), steady-state affinity plot, 1:1 Langmuir fit, gp350 immobilised on CM5 sensor chip, antibody as analyte
# [8] = biological target: T1, Epstein Barr Virus (EBV) glycoprotein …; test: SPR (Biacore T100), gp350 immobilised on CM5 chip, antibody as analyte, single cycle kinetics; single cycle kinetics (FIG. 10), dissociation constant in nM
# [9] = biological target: T1, Epstein Barr Virus (EBV) glycoprotein …; test: SPR steady-state affinity plot, 1:1 Langmuir fit (FIG. 11), gp350 immobilised; printed as 'affinity value'; 'affinity value' in M (FIG. 11)
# [10] = biological target: T1, Epstein Barr Virus (EBV) glycoprotein …; test: SPR (Biacore T100), gp350 immobilised on CM5 chip, antibody as analyte, single cycle kinetics; single cycle kinetics (FIG. 10), 'dissociation value' in nM
binder,measurement,setting,value
B1,Kd,[1],0.0333 µM
same,Kd,[2],0.829 µM
B2,absorbance,[3],> 1 absorbance
B3,Kd,[4],0.309 µM
same,Kd,[5],0.000723 µM
B4,absorbance,[3],> 1 absorbance
B5,Kd,[6],0.0114 µM
same,Kd,[7],0.663 µM
B6,Kd,[4],0.663 µM
same,Kd,[8],0.00223 µM
B7,Kd,[9],0.768 µM
same,Kd,[10],0.00407 µM
B8,Kd,[4],0.465 µM
same,Kd,[8],0.00386 µM
B9,absorbance,[3],> 1 absorbance
B10,absorbance,[3],> 1 absorbance
B11,absorbance,[3],> 1 absorbance
B12,absorbance,[3],> 1 absorbance
